Experimental findings from patent publication US20130251642A1 (US Dept. of Health and Human Services, published 2013) are described below.

For test [1], the target named is T1, Fc-hROR1kr (human, UniProt Q01973 312-391).
T1 construct: domain: Kringle; not shown: Fc domain (human IgG1 Fc is stated for Fc-hROR1; not restated for this construct)
Briefly: ELISA, Fc fusion of one or two domains of human ROR1 immobilized, antibody in IgG1 format, absorbance at 405 nm.

Test [2] addresses T2, Fc-hROR1ig (human, UniProt Q01973 30-147, limits assumed).
T2 construct: domain: Ig; not shown: Fc domain (human IgG1 Fc is stated for Fc-hROR1; not restated for this construct)
The test is described as above.

A further test addresses T3, Fc-hROR1ig+fz (human, UniProt Q01973 30-299, limits assumed).
T3 construct: domain: Ig and Frizzled; not shown: Fc domain (human IgG1 Fc is stated for Fc-hROR1; not restated for this construct)
The description is as above.

Test [3] has as its target T4, Fc-hROR1 (the three extracellular domains of human ROR1 fused to the Fc domain of human IgG1) (human, UniProt Q01973 30-406).
T4 construct: extracellular domain; also called human ROR1 (Fc-hROR1); not shown: Fc domain of human IgG1
Briefly: SPR on immobilized Fc-hROR1; bivalent IgG1 Y31 against monovalent Fab Y31.

The target in test [4] is T5, cell surface human ROR1 (human, UniProt Q01973 30-937).
T5 construct: whole, on cells; The cell type of each entry is named under assay; also called HEK 293F/hROR1; HEK 293F cells stably transfected with human ROR1
T5 sequence (Q01973 30-937): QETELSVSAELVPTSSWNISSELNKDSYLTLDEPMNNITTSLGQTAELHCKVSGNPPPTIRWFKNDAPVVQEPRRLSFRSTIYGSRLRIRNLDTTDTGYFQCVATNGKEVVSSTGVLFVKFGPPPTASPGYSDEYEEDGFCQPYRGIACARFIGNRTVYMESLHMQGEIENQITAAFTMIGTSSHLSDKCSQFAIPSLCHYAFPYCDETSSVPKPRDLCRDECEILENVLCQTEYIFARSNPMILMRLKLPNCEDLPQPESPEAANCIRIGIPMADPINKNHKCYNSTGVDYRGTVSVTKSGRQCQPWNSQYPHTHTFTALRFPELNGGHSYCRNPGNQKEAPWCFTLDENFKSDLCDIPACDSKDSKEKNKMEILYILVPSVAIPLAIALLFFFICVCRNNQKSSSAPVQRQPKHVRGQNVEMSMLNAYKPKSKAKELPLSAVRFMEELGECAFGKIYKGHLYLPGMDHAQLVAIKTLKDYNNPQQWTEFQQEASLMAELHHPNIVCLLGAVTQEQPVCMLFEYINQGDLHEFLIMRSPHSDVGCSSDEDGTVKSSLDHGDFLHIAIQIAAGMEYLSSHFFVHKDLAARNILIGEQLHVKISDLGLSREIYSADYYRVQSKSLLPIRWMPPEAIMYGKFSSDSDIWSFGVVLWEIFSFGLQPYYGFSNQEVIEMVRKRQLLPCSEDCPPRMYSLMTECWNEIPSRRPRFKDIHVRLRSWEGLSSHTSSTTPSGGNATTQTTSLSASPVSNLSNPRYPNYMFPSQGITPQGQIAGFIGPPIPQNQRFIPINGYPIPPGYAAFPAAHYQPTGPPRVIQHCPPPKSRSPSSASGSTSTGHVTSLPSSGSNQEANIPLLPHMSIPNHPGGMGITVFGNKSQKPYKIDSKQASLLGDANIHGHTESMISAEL
Briefly: flow cytometry on primary CLL cells of one patient, IgG1 at 5 µg/mL.

The target of test [5] is T5, cell surface human ROR1. Briefly: flow cytometry on primary CLL cells of one patient, IgG1 at 1 µg/mL.
Test [6] has as its target T2, Fc-hROR1ig. Briefly: ELISA on immobilized Fc-hROR1ig (Fab data not shown). (ELISA stands for enzyme-linked immunosorbent assay.)
The target in test [7] is T1, Fc-hROR1kr. Briefly: ELISA on immobilized Fc-hROR1kr (Fab data not shown).
The target of test [8] is T5, cell surface human ROR1. Briefly: flow cytometry on primary CLL cells of one patient, IgG1 at 0.1 µg/mL. Background: In flow cytometry, cells or beads pass a laser one at a time.
Test [9] concerns the target T6, Fc-mROR1 (mouse analogue of Fc-hROR1) (mouse, UniProt Q9Z139 30-406).
T6 construct: extracellular domain; also called mouse ROR1 (Fc-mROR1); not shown: Fc domain (human IgG1 Fc is stated for Fc-hROR1; not restated for this construct)
Briefly: ELISA, antigen immobilized, antibody in IgG1 format, absorbance at 405 nm.

A further test addresses T7, Fc-hROR1fz+kr (human, UniProt Q01973 165-406, limits assumed).
T7 construct: domain: Frizzled and Kringle; also called Fc-hROR1kr+fz; Fc-ROR1fz+kr; not shown: Fc domain (human IgG1 Fc is stated for Fc-hROR1; not restated for this construct)
Briefly: ELISA, Fc fusion of one or two domains of human ROR1 immobilized, antibody in IgG1 format, absorbance at 405 nm.

Test [10] concerns the target T4, Fc-hROR1 (the three extracellular …). Briefly: SPR on immobilized Fc-hROR1; bivalent IgG1 R12 against monovalent Fab R12.
The target of test [11] is T6, Fc-mROR1 (mouse analogue of Fc-hROR1). Briefly: SPR (Biacore X100), Fc-mROR1 immobilized on CM5 chip. In general terms: In SPR one partner is held on a chip, and binding of the other changes the refractive index at the surface.
Test [12] concerns the target T4, Fc-hROR1 (the three extracellular …). Briefly: SPR on immobilized Fc-hROR1; bivalent IgG1 R11 against monovalent Fab R11.
Test [13] concerns the target T8, hROR2-Fc (commercially available, R&D Systems) (human, UniProt Q01974 34-403).
T8 construct: Bought from R&D Systems; also called human ROR2 (hROR2-Fc); not shown: Fc part of the bought fusion
Briefly: ELISA, antigen immobilized, antibody in IgG1 format, absorbance at 405 nm.

The target in the next test is T9, Fc-hROR1fz (human, UniProt Q01973 165-299, limits assumed).
T9 construct: domain: Frizzled; not shown: Fc domain (human IgG1 Fc is stated for Fc-hROR1; not restated for this construct)
T9 sequence (Q01973 165-299 limits assumed): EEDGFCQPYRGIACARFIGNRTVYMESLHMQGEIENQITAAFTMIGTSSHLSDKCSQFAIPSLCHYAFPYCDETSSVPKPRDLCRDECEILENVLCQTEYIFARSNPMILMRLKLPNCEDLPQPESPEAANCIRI
Briefly: ELISA, Fc fusion of one or two domains of human ROR1 immobilized, antibody in IgG1 format, absorbance at 405 nm.

The target of test [14] is T8, hROR2-Fc (commercially available, R&D …). Briefly: ELISA on immobilized hROR2-Fc (Fab data not shown).

T2 sequence (Q01973 30-147 limits assumed): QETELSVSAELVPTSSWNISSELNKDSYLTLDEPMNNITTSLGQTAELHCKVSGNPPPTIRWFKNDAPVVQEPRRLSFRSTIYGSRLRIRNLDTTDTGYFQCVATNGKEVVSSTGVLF
T1 sequence (Q01973 312-391): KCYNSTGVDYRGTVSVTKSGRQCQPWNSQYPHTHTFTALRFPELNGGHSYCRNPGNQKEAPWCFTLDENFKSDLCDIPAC
T4 sequence (Q01973 30-406): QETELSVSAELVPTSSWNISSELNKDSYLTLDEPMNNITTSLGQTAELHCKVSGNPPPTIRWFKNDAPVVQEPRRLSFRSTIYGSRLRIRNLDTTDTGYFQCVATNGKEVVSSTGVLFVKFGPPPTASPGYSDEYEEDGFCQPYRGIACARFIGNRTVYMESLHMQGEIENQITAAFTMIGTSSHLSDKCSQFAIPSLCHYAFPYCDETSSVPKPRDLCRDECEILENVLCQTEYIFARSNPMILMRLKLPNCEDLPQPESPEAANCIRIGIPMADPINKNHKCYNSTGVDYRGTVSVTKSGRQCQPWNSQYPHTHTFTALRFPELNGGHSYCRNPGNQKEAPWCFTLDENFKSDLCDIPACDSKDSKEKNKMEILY
T3 sequence (Q01973 30-299 limits assumed): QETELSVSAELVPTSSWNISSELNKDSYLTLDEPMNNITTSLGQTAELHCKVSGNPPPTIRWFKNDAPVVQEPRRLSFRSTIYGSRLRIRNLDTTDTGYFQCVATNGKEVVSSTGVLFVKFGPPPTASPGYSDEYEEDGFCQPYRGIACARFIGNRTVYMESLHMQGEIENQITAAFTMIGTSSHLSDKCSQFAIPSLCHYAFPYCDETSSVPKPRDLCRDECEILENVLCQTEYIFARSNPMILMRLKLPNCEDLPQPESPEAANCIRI
T6 sequence (Q9Z139 30-406): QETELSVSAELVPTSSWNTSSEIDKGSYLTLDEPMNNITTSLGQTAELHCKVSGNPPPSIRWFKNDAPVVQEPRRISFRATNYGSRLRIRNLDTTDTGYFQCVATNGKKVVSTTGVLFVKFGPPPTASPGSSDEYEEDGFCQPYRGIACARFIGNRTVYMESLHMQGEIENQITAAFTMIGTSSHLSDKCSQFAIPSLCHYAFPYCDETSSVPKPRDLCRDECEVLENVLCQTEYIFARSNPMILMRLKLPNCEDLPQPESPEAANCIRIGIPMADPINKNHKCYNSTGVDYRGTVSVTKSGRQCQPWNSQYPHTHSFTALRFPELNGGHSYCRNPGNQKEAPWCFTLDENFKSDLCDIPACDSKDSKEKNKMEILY
T8 sequence (Q01974 34-403 limits assumed): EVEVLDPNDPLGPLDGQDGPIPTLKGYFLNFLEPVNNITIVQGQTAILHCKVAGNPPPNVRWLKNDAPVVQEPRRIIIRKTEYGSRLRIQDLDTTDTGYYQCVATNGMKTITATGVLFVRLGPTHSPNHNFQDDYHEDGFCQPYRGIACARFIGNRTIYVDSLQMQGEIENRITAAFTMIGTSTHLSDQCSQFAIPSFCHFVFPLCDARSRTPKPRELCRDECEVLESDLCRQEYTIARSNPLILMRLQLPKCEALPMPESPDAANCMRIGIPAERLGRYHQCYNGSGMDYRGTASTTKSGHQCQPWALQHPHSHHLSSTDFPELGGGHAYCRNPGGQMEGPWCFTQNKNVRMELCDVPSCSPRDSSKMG
T7 sequence (Q01973 165-406 limits assumed): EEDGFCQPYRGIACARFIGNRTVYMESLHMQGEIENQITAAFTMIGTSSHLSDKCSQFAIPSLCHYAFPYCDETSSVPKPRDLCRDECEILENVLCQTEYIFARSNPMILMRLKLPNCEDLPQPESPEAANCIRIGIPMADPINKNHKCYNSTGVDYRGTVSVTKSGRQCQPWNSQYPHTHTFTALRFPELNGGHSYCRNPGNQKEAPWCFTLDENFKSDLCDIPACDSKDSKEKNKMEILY

B1: chimeric rabbit/human IgG1 Y31 (antibody, V domains shown)
VH: QSLEESGGRLVTPGTPLTLTCTVSGIDLNSHWMSWVRQAPGKGLEWIGIIAASGSTYYANWAKGRFTISKTSTTVDLRIASPTTEDTATYFCARDYGDYRLVTFNIWGPGTLVTVSS
VL: ELVMTQTPSSVSAAVGGTVTINCQASQSIGSYLAWYQQKPGQPPKLLIYYASNLASGVPSRFSGSGSGTEYTLTISGVQREDAATYYCLGSLSNSDNVFGGGTELEIL
notes: IgG1 format from vector PIGG (human gamma 1 heavy and kappa light constant regions), made in HEK 293F cells; Biotinylated for flow cytometry; also called mAb Y31
As for B1, the binding result with Fc-hROR1kr [1], in the test with Fc-hROR1ig [2] and in the test with Fc-hROR1ig+fz was “no binding (tested: not given)” each time. Also, in test [3], the “factor of increase of virtual affinity, IgG1 against Fab” value (“factor of increase of virtual affinity” below) came out at 12 fold. Moreover, the figures for the MFI with cell surface human ROR1 [4] and with cell surface human ROR1 [5] were 21.6 MFI and 8.3 MFI, respectively.

B2: chimeric rabbit/human Fab Y31 (Fab, V domains shown)
VH: B1 VH
VL: B1 VL
notes: Fab with human C kappa and human CH1; SPR: purified Fab-(His)6
Take B2: the binding result in the test with Fc-hROR1ig [6] and in the test with Fc-hROR1kr [7] was “no binding” each time.

B3: chimeric rabbit/human IgG1 R12 (antibody, V domains shown)
VH: QEQLVESGGRLVTPGGSLTLSCKASGFDFSAYYMSWVRQAPGKGLEWIATIYPSSGKTYYATWVNGRFTISSDNAQNTVDLQMNSLTAADRATYFCARDSYADDGALFNIWGPGTLVTISS
VL: ELVLTQSPSVSAALGSPAKITCTLSSAHKTDTIDWYQQLQGEAPRYLMQVQSDGSYTKRPGVPDRFSGSSSGADRYLIIPSVQADDEADYYCGADYIGGYVFGGGTQLTVTG
notes: IgG1 format from vector PIGG; The light chain is rabbit V lambda and human C kappa; the heavy chain has the human gamma 1 constant region; Made in HEK 293F cells; Biotinylated for flow cytometry; also called mAb R12
Turning to B3, the MFI with cell surface human ROR1 [8] was 89.4 MFI; with cell surface human ROR1 [4] it was 122 MFI; with cell surface human ROR1 [5], 97.9 MFI. For the same molecule, the binding result (in [9]; in the test with Fc-hROR1kr [1]; with Fc-hROR1ig [2]; in the test with Fc-hROR1fz+kr) was “no binding (tested: not given)” in each case. Also, the “factor of increase of virtual affinity” value in test [10] amounted to 5 fold.

B4: chimeric rabbit/human Fab R12 (Fab, V domains shown)
VH: B3 VH
VL: B3 VL
notes: The light chain is rabbit V lambda with human C kappa; SPR: purified Fab-(His)6
As to B4, the figures for the binding result (with Fc-hROR1ig [6]; in the test with Fc-hROR1kr [7]; in test [11]) were “no binding”, “no binding” and “no binding (tested: 1.5 to 100 nM)”, respectively.

B5: chimeric rabbit/human IgG1 R11 (antibody, V domains shown)
VH: QSVKESEGDLVTPAGNLTLTCTASGSDINDYPISWVRQAPGKGLEWIGFINSGGSTWYASWVKGRFTISRTSTTVDLKMTSLTTDDTATYFCARGYSTYYCDFNIWGPGTLVTISS
VL: ELVMTQTPSSTSGAVGGTVTINCQASQSIDSNLAWFQQKPGQPPTLLIYRASNLASGVPSRFSGSRSGTEYTLTISGVQREDAATYYCLGGVGNVSYRTSFGGGTEVVVK
notes: IgG1 format from vector PIGG (human gamma 1 heavy and kappa light constant regions), four polypeptide chains, made in HEK 293F cells; Biotinylated for flow cytometry; also called IgG1 11; mAb R11
On to B5, for which the MFI with cell surface human ROR1 [8] was 6.6 MFI; in the test with cell surface human ROR1 [4], 64.9 MFI; with cell surface human ROR1 [5] it was 18.1 MFI. Moreover, the “factor of increase of virtual affinity” value in [12] was 14 fold. The binding result (in test [13]; with Fc-hROR1ig [2]; with Fc-hROR1ig+fz; with Fc-hROR1fz) was “no binding (tested: not given)” in each case.

B6: chimeric rabbit/human Fab R11 (Fab, V domains shown)
VH: B5 VH
VL: B5 VL
notes: Fab with human C kappa and human CH1; For SPR it was the purified Fab-(His)6 from pET11a (HA tag removed, C-terminal His6)
Regarding B6, in [14], the binding result is recorded as “no binding”.
